Key:
Conditions in all cases: other: 0.5 mM NADP^+, pH 7.6, 37° C.
[1] = substrate: N[C@@H](CC1(C(=O)O)C=CC(O)C=C1)C(=O)O; assay: ADH and PDH assay: steady-state kinetics and Tyr inhibition, GmncADH D218N; type: biochemical, Glycine max (soybean)
Method: (§1) Kinetic parameters of purified recombinant proteins were determined from assays conducted at varying arogenate (19.5 μM-5 mM) and prephenate concentration (23.4 μM-6 mM). Standard assay conditions were 25 mM HEPES pH 7.6, 50 mM KCl and 10% (v/v) ethylene glycol, and 0.5 mM NADP^+ with varied substrate, concentrations. Reactions were initiated by addition of enzyme and incubated at 37° C. monitored every 10-15 seconds at […] using a microplate reader (Tecan Genios). Kinetic parameters were determined by fitting initial velocity data to the Michaelis-Menten equation using the Origin software (OriginLab).
(§2) Arogenate was prepared by enzymatic conversion of prephenate (Sigma-Aldrich) as previously reported^56. For Tyr inhibition assays, Tyr was dissolved in a slightly basic solution (0.025 N NaOH) due to solubility issues, thus the concentration of lysis buffer was increased to 500 mM HEPES final concentration to buffer against the changes by addition of Tyr in the reaction. Reactions containing varying amounts of Tyr (10 μM-8 mM) with 0.5 mM NADP^+ and either 1 mM arogenate or 0.8 mM prephenate were monitored as above.

[2] = substrate: O=C(O)C(=O)CC1(C(=O)O)C=CC(O)C=C1; assay: as above; type: biochemical, Glycine max (soybean)
Method: as §1, §2

[3] = substrate: N[C@@H](CC1(C(=O)O)C=CC(O)C=C1)C(=O)O; assay: ADH and PDH assay: steady-state kinetics and Tyr inhibition, SolyncADH D224N; type: biochemical, Solanum lycopersicum (tomato)
Method: as §1, §2

[4] = substrate: O=C(O)C(=O)CC1(C(=O)O)C=CC(O)C=C1; assay: as above; type: biochemical, Solanum lycopersicum (tomato)
Method: as §1, §2

[5] = substrate: N[C@@H](CC1(C(=O)O)C=CC(O)C=C1)C(=O)O; assay: ADH and PDH assay: steady-state kinetics and Tyr inhibition, MtPDH wild type; type: biochemical, Medicago truncatula
Method: as §1
(§3) Arogenate was prepared by enzymatic conversion of prephenate (Sigma-Aldrich) as previously reported^56. For Tyr inhibition assays, Tyr was dissolved in a slightly basic solution (0.025 N NaOH) due to solubility issues, thus the concentration of lysis buffer was increased to 500 mM HEPES final concentration to buffer against the changes by addition of Tyr in the reaction. […]

[6] = substrate: O=C(O)C(=O)CC1(C(=O)O)C=CC(O)C=C1; assay: as above; type: biochemical, Medicago truncatula
Method: as §1, §3

[7] = substrate: N[C@@H](CC1(C(=O)O)C=CC(O)C=C1)C(=O)O; assay: ADH and PDH assay: steady-state kinetics and Tyr inhibition, MtPDH C220D; type: biochemical, Medicago truncatula
Method: as §1, §2

[8] = substrate: O=C(O)C(=O)CC1(C(=O)O)C=CC(O)C=C1; assay: as above; type: biochemical, Medicago truncatula
Method: as §1, §2

[9] = substrate: N[C@@H](CC1(C(=O)O)C=CC(O)C=C1)C(=O)O; assay: ADH and PDH assay: steady-state kinetics and Tyr inhibition, MtncADH D220C; type: biochemical, Medicago truncatula
Method: as §1, §2

[10] = substrate: O=C(O)C(=O)CC1(C(=O)O)C=CC(O)C=C1; assay: as above; type: biochemical, Medicago truncatula
Method: as §1, §2

[11] = substrate: N[C@@H](CC1(C(=O)O)C=CC(O)C=C1)C(=O)O; assay: ADH and PDH assay: steady-state kinetics and Tyr inhibition, GmPDH1 N222D; type: biochemical, Glycine max (soybean)
Method: as §1, §2

[12] = substrate: O=C(O)C(=O)CC1(C(=O)O)C=CC(O)C=C1; assay: as above; type: biochemical, Glycine max (soybean)
Method: as §1, §2

[13] = substrate: N[C@@H](CC1(C(=O)O)C=CC(O)C=C1)C(=O)O; assay: ADH and PDH assay: steady-state kinetics and Tyr inhibition, GmPDH1 M219T/N222D; type: biochemical, Glycine max (soybean)
Method: as §1, §2

[14] = substrate: O=C(O)C(=O)CC1(C(=O)O)C=CC(O)C=C1; assay: as above; type: biochemical, Glycine max (soybean)
Method: as §1, §2

[15] = substrate: N[C@@H](CC1(C(=O)O)C=CC(O)C=C1)C(=O)O; assay: ADH and PDH assay: steady-state kinetics and Tyr inhibition, GmPDH1 M219T; type: biochemical, Glycine max (soybean)
Method: as §1, §2

[16] = substrate: O=C(O)C(=O)CC1(C(=O)O)C=CC(O)C=C1; assay: as above; type: biochemical, Glycine max (soybean)
Method: as §1, §2

[17] = substrate: O=C(O)C(=O)CC1(C(=O)O)C=CC(O)C=C1; assay: ADH and PDH assay: steady-state kinetics and Tyr inhibition, GmPDH1 N222A; type: biochemical, Glycine max (soybean)
Method: as §1, §2

B1: Glycine max GmncADH variant D218N (Glycine max; D218N) (protein)
chain: MSTWSLKIGVVGFGSFGQFLAKTMIKQGHTLRATSRTDYSLLCLPMGIQFFRDVAAFLEADNDVILVCTSILSLSEVLSSMPLTCLKRSTLFVDVLSVKEHPRNLLIKVLPEESDILCTHPMFGPDSGKDGWQDLTFVYDKVRIRDEAICSSFLHIFASEGCRMLQMSCEEHDKIAAKSQFITHTIGRTLAEMDIKSTPIDTKGFHSLVQLKDTTIRNSFDLYSGLFLHNRFAVQELENLEHALHKVKEMLVQRKSEELGLEKTEC
notes: D218N by site-directed mutagenesis
- Km [1]: 0.74 ± 0.14 mM
- kcat [1]: 8.6 ± 0.2 s⁻¹
- kcat/Km [1]: 11600 M⁻¹ s⁻¹
- Km [2]: 1.98 ± 0.05 mM
- kcat [2]: 11.5 ± 0.5 s⁻¹
- kcat/Km [2]: 5810 M⁻¹ s⁻¹

B2: Solanum lycopersicum SolyncADH variant D224N (Solanum lycopersicum; D224N) (protein)
chain: MSSSSSCQPKTLRIGIIGFGPFAQFLAKTMMKQGHCIHVTSRSDYSELCTDLGILFFRDMGAFLESDNEVIMISTSILSLSQVVESIPFNCLKRPTLFVDVLSVKEHPKDVLLRMMPRECDLLCTHPMFGPESGKDGWEDLTFMYDMVRIRDQPLCSSFLHIFSSEGCKMLEMTCEKHDRLAAQSQFLTHTIGRILSEMEVEPTPIDTKGFQKLVQVKESSVKNSFDLFSGLFIHNRFARQQMKNLEVALEKTKEKLQERSKELQDPIISKF
notes: D224N by site-directed mutagenesis
- Km [3]: 1.34 ± 0.48 mM
- kcat [3]: 11.7 ± 0.2 s⁻¹
- kcat/Km [3]: 8730 M⁻¹ s⁻¹
- Km [4]: 2.31 ± 0.10 mM
- kcat [4]: 2.4 ± 1 s⁻¹
- kcat/Km [4]: 1040 M⁻¹ s⁻¹

B3: MtPDH (MtPDH1; Mt3g071980), Medicago truncatula prephenate dehydrogenase, wild type (Medicago truncatula) (protein)
chain: MSSSSKSLKIGIVGFGTFGQFLANTMIKQGHTLTATSRTDYSQLCDQMGIHFFRDITAFLDADMDVILLCTSISSLSEVVGSMPLACLKRPTLFVDVLSVKEHPKNLLLKVLPEESDILCTHPMFGPVSGKNGWQNLTFMFDKVRIKDEVTCSKFLQIFASEGCKMVEMSCEEHDKAAAKSQFITHTIGRTLAEMDIKSTPIDTKGFQTLVELKKPVMGCSFDLYSGLFVYNRFARQELENLEHALHKVKEMLVQRIDEGQNPERTES
- Km [5]: 0.94 ± 0.04 mM
- kcat [5]: 16.9 ± 1.1 s⁻¹
- kcat/Km [5]: 18000 M⁻¹ s⁻¹
- Km [6]: 0.05 ± 0.01 mM
- kcat [6]: 18.5 ± 3 s⁻¹
- kcat/Km [6]: 370000 M⁻¹ s⁻¹

B4: Medicago truncatula MtPDH variant C220D, SEQ ID NO: 1 (Medicago truncatula; C220D) (protein)
chain: MSSSSKSLKIGIVGFGTFGQFLANTMIKQGHTLTATSRTDYSQLCDQMGIHFFRDITAFLDADMDVILLCTSISSLSEVVGSMPLACLKRPTLFVDVLSVKEHPKNLLLKVLPEESDILCTHPMFGPVSGKNGWQNLTFMFDKVRIKDEVTCSKFLQIFASEGCKMVEMSCEEHDKAAAKSQFITHTIGRTLAEMDIKSTPIDTKGFQTLVELKKPVMGDSFDLYSGLFVYNRFARQELENLEHALHKVKEMLVQRIDEGQNPERTES
- Km [7]: 0.27 ± 0.01 mM
- kcat [7]: 46.8 ± 4.2 s⁻¹
- kcat/Km [7]: 173000 M⁻¹ s⁻¹
- Km [8]: 1.53 ± 0.09 mM
- kcat [8]: 0.5 ± 0.1 s⁻¹
- kcat/Km [8]: 327 M⁻¹ s⁻¹

B5: Medicago truncatula MtncADH variant D220C, SEQ ID NO: 10 (Medicago truncatula; D220C) (protein)
chain: MSNSPSLKIGIVGFGSFGQFLAKTMIKQGHTLTATSRTDYSHTCLQLGIQFFRDVGTFIEANNDVILICTSIMSFTKVLSSMPLACLKKPTTLFVDVLSVKEHPREVLLRVLPEESDILCTHPMFGPESGKNGWKDLNFMYDKVRIHDEATCSNFLHIFASEGCKMLQMSCEEHDKIAAKSQFITHTIGRTLAEMDIESTPIDTKGFQTLTQLKNTTMRCSFDLYSGLFVHNRFAKQELENLQRALDRVKEMLVQRMREELGPEKD
notes: D220C by site-directed mutagenesis
- Km [9]: 0.87 ± 0.03 mM
- kcat [9]: 7 ± 0.8 s⁻¹
- kcat/Km [9]: 8050 M⁻¹ s⁻¹
- Km [10]: 0.74 ± 0.03 mM
- kcat [10]: 10.1 ± 0.5 s⁻¹
- kcat/Km [10]: 13600 M⁻¹ s⁻¹

B6: Glycine max GmPDH1 variant N222D, SEQ ID NO: 2 (Glycine max; N222D) (protein)
chain: MSTSSSSQSLKIGIVGFGNFGQFLAKTMIKQGHTLTATSRSDYSELCLQMGIHFFRDVSAFLTADIDVIVLCTSILSLSEVVGSMPLTSLKRPTLFVDVLSVKEHPRELLLRELPEDSDILCTHPMFGPQTAKNGWTDHTFMYDKVRIRDEVICSNFIQIFATEGCKMVQMSCEEHDRAAAKSQFITHTIGRTLGEMDIQSTPIDTKGFETLVKLKETMMRDSFDLYSGLFVYNRFARQELENLEHALHKVKETLMIQRTNGEQGHKRTES
- Km [11]: 0.53 ± 0.18 mM
- kcat [11]: 27.8 ± 3.5 s⁻¹
- kcat/Km [11]: 52400 M⁻¹ s⁻¹
- Km [12]: 7.58 ± 1.13 mM
- kcat [12]: 19.1 ± 1.4 s⁻¹
- kcat/Km [12]: 2520 M⁻¹ s⁻¹

B7: Glycine max GmPDH1 variant M219T/N222D (Glycine max; M219T/N222D) (protein)
chain: MSTSSSSQSLKIGIVGFGNFGQFLAKTMIKQGHTLTATSRSDYSELCLQMGIHFFRDVSAFLTADIDVIVLCTSILSLSEVVGSMPLTSLKRPTLFVDVLSVKEHPRELLLRELPEDSDILCTHPMFGPQTAKNGWTDHTFMYDKVRIRDEVICSNFIQIFATEGCKMVQMSCEEHDRAAAKSQFITHTIGRTLGEMDIQSTPIDTKGFETLVKLKETTMRDSFDLYSGLFVYNRFARQELENLEHALHKVKETLMIQRTNGEQGHKRTES
- Km [13]: 0.63 ± 0.18 mM
- kcat [13]: 29 ± 4.4 s⁻¹
- kcat/Km [13]: 46000 M⁻¹ s⁻¹
- Km [14]: 1.18 ± 0.12 mM
- kcat [14]: 2.5 ± 0.3 s⁻¹
- kcat/Km [14]: 2120 M⁻¹ s⁻¹

B8: Glycine max GmPDH1 variant M219T (Glycine max; M219T) (protein)
chain: MSTSSSSQSLKIGIVGFGNFGQFLAKTMIKQGHTLTATSRSDYSELCLQMGIHFFRDVSAFLTADIDVIVLCTSILSLSEVVGSMPLTSLKRPTLFVDVLSVKEHPRELLLRELPEDSDILCTHPMFGPQTAKNGWTDHTFMYDKVRIRDEVICSNFIQIFATEGCKMVQMSCEEHDRAAAKSQFITHTIGRTLGEMDIQSTPIDTKGFETLVKLKETTMRNSFDLYSGLFVYNRFARQELENLEHALHKVKETLMIQRTNGEQGHKRTES
- Km [15]: 1.55 ± 0.14 mM
- kcat [15]: 4.6 ± 0.3 s⁻¹
- kcat/Km [15]: 2970 M⁻¹ s⁻¹
- Km [16]: 0.10 ± 0.02 mM
- kcat [16]: 30.3 ± 0.8 s⁻¹
- kcat/Km [16]: 303000 M⁻¹ s⁻¹

B9: Glycine max GmPDH1 variant N222A (Glycine max; N222A) (protein)
chain: MSTSSSSQSLKIGIVGFGNFGQFLAKTMIKQGHTLTATSRSDYSELCLQMGIHFFRDVSAFLTADIDVIVLCTSILSLSEVVGSMPLTSLKRPTLFVDVLSVKEHPRELLLRELPEDSDILCTHPMFGPQTAKNGWTDHTFMYDKVRIRDEVICSNFIQIFATEGCKMVQMSCEEHDRAAAKSQFITHTIGRTLGEMDIQSTPIDTKGFETLVKLKETMMRASFDLYSGLFVYNRFARQELENLEHALHKVKETLMIQRTNGEQGHKRTES
- Km [17]: 0.19 ± 0.04 mM
- kcat [17]: 6.6 ± 0.3 s⁻¹
- kcat/Km [17]: 34700 M⁻¹ s⁻¹
